The text below walks through data of publication PMC4608796.

In data set [1] the target is T1, CodY-His5 (Bacillus subtilis) (UniProt P39779).
T1 sequence: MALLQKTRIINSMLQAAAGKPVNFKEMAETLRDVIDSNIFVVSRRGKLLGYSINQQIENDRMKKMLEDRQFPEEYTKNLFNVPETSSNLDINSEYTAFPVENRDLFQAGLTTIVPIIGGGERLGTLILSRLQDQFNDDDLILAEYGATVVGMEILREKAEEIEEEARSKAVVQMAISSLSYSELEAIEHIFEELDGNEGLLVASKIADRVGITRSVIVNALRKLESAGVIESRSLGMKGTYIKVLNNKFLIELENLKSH
Nature of the data set: EMSA. The settings on record: CodY assays with 10 mM ILV (plus 2 mM GTP in Fig 2 footprints); Kd = protein monomer concentration shifting 50% of DNA; buffer, salt, pH and temperature not …. On the technique in general: A gel shift assay detects complexes by their altered migration in electrophoresis.

Data set [2] concerns the target T2, His6-ScoC (Bacillus subtilis) (UniProt P11065).
T2 sequence: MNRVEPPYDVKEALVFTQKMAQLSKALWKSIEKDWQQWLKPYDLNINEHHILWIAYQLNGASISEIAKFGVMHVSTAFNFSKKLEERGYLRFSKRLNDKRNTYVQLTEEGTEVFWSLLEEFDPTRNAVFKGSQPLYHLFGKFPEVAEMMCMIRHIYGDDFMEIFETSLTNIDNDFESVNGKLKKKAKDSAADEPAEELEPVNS
Put plainly: EMSA. The settings on record: CodY assays with 10 mM ILV (plus 2 mM GTP in Fig 2 footprints); Kd = protein monomer concentration shifting 50% of DNA; buffer, salt, pH and temperature not ….

For braB156p+ (gel shift), in data set [1], the Kd (in general, the free concentration of one partner at which half of the binding sites on the other are occupied at equilibrium, for simple one-to-one binding) worked out at 75 nM.

With braB242p+, the Kd in data set [1] was determined as 3 nM.

For “TCGTTTCGTCATATTATCTGACAATTAATTGACAGAATATTTTAACATAATTATTAGGAGGATT (double strand) [braB64]”, the Kd in data set [1] came to 5 nM; in data set [2], 150 nM.

For braB144p+ (gel shift), the Kd in data set [1] stood at 4 nM.
